# Data: patent publication US20200255860, “A STRONG INSULATOR AND USES […] IN GENE DELIVERY” (CHILDREN'S HOSPITAL MEDICAL CENTER, published 2020)
# T1: CTCF (Homo sapiens, UniProt P49711 P49711:1-727)
# T1 sequence: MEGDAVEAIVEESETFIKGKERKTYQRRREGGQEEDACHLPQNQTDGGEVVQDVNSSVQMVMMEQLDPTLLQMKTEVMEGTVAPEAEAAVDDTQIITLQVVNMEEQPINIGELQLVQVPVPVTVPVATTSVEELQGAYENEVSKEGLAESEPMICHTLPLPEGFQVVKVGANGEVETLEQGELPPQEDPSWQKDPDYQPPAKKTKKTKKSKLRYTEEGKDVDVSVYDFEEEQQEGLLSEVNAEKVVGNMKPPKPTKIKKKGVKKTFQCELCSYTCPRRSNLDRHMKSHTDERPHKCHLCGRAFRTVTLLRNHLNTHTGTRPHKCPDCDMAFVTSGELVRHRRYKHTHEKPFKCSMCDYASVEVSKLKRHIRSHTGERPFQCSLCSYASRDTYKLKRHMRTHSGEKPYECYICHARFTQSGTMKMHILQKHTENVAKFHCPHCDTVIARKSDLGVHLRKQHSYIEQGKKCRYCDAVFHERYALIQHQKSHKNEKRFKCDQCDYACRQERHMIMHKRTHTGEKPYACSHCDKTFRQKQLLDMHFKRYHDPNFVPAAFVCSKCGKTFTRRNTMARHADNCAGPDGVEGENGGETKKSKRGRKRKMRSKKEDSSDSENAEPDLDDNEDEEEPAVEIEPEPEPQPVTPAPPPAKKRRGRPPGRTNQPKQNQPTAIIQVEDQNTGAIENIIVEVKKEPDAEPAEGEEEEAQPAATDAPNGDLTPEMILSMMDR
# Tests used:
# Conditions in all cases: tags: full-length, Abnova; label: IRDye700 5' both strands
# CTCF [1] = target: T1, CTCF; test: EMSA; no LV probe bound
# CTCF [2] = target: T1, CTCF; test: EMSA; 20 mM HEPES pH 7.5, 50 mM KCl, 5 mM MgCl2, 3.3 uM ZnSO4, poly(dI:dC), room temp; competed by unlabeled H19
# CTCF [3] = target: T1, CTCF; test: EMSA; region 4 mutated, no effect
Binder,binding result (CTCF [1]),also measured
LV3 probe (dsDNA) DNA 1: GTCGGGGAAGCTGACGTCCTTTCGAATTCGATATCAAGCTGTACCTTTAAGACCAATGACTTACAAGGCAGCTGTAGATC DNA 2: GATCTACAGCTGCCTTGTAAGTCATTGGTCTTAAAGGTACAGCTTGATATCGAATTCGAAAGGACGTCAGCTTCCCCGAC,no binding,–
LV2 probe (dsDNA) DNA 1: GATACCTAAAGGATCAACAGCTCCTGGGGATTTGGGGTTGCTCTGGAAAACTCATTTGCACCACTGCTGTGCCTTGGAATGCT DNA 2: AGCATTCCAAGGCACAGCAGTGGTGCAAATGAGTTTTCCAGAGCAACCCCAAATCCCCAGGAGCTGTTGATCCTTTAGGTATC,no binding,–
FV2 probe (dsDNA) DNA 1: AGTAAAAGGATTTGTATATTAGCCTTGCTAAGGGAGACATCTAGTGATATAAGTGTGAACTACACTTATCTTAAATGATG DNA 2: CATCATTTAAGATAAGTGTAGTTCACACTTATATCACTAGATGTCTCCCTTAGCAAGGCTAATATACAAATCCTTTTACT,–,binding result (CTCF [2]): binds
FV2 mutant 4 (dsDNA) DNA 1: AGTAAAAGGATTTGTATAGGCTTTATATCAAGGGAGACATCTAGTGATATAAGTGTGAACTACACTTATCTTAAATGATG DNA 2: CATCATTTAAGATAAGTGTAGTTCACACTTATATCACTAGATGTCTCCCTTGATATAAAGCCTATACAAATCCTTTTACT,–,binding result (CTCF [3]): binds
LV1 probe (dsDNA) DNA 1: ACAAGATAGAGGAAGAGCAAAACAAAAGTAAGACCACCGCACAGCAAGCGGCCGCTGATCTTCAGACCTGGAGGAGGAGATATGAGGGA DNA 2: TCCCTCATATCTCCTCCTCCAGGTCTGAAGATCAGCGGCCGCTTGCTGTGCGGTGGTCTTACTTTTGTTTTGCTCTTCCTCTATCTTGT,no binding,–
